In patent publication US20210238308A1:

What was measured:
Test in all cases: SPR, Protein L capture
[1] = biological target: PRYSPRY domain of human TRIM21 with N-terminal 6xHis tag (human)
[2] = biological target: human FcRn (human) (UniProt P55899)
[3] = biological target: PRYSPRY domain of mouse TRIM21 with N-terminal 6xHis tag (mouse)
PRYSPRY domain of mouse TRIM21 with N-terminal 6xHis tag (mouse), sequence (chain, as listed by the source limits assumed): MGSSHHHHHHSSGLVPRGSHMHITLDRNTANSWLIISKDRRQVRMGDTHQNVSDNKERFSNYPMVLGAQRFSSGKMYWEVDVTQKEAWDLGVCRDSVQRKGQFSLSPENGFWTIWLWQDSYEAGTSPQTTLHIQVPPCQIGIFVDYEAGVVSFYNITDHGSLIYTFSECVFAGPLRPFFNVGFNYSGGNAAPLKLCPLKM

PRYSPRY domain of human TRIM21 with N-terminal 6xHis tag (human), sequence (chain, as listed by the source limits assumed): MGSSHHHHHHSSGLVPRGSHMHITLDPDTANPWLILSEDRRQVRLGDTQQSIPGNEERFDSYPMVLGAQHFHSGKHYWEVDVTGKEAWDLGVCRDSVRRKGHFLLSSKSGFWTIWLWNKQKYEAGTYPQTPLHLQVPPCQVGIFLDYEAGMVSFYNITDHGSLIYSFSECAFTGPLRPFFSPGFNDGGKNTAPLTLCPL

Row | hTRIM21 binding level ratio (variant/control antibody) [1] | hFcRn binding level ratio (variant/control antibody) [2] | Substance | other results
1 | 0.096 |  | MRAH-G1d/MRAL-KT0 E345K (antibody) | 
2 |  | 0.09 | MRAH-G1d/MRAL-KT0 L309Q (antibody) | 
3 |  | 0.08 | MRAH-G1d/MRAL-KT0 L432A (antibody) | 
4 | 0.099 |  | MRAH-G1d/MRAL-KT0 L432R (antibody) | 
5 |  |  | MRAH-G1d/MRAL-KT0 N434H (antibody) | mTRIM21 binding level ratio (variant/control antibody) [3]: 0.097
